The source of these data is US20240254234A1 (NOVIMMUNE, published 2024).

Numbering of substitutions follows the chain as printed.

The Kd is the equilibrium constant for the complex coming apart. A high value points to weaker binding. The term EC50 (read off the curve) denotes the midpoint of the concentration-response curve. A low value points to a more potent agent.

One assay has as its target T1, cynomolgus CD28 (cynomolgus, UniProt Q0PDN3 19-152).
T1 construct: Recombinant form not described; also called CD28 (Cynomolgus)
Description: Octet (printed: Octet surface plasmon resonance). (In BLI a coated tip is dipped into the sample, and binding shifts an interference pattern.)

The next assay concerns the target T2, human CD32a R167 (human, UniProt P12318 36-218).
T2 construct: Allelic variant named only as R167; also called hCD32a R167
T2 sequence (looked up): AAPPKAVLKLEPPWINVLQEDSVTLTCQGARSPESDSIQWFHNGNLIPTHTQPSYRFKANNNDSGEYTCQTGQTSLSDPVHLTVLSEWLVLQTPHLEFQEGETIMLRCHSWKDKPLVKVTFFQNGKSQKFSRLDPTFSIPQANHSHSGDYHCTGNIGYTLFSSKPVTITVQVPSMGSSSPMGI
The experiment in a line: Octet (printed: Octet surface plasmon resonance).

The next assay has as its target T3, human CD32a H167 (human, UniProt P12318 36-218).
T3 construct: Allelic variant named only as H167; also called hCD32a H167
T3 sequence (looked up): T2 sequence (looked up) with R132H
Description: Octet (printed: Octet surface plasmon resonance).

In a further assay the target is T4, human CD32b (human, UniProt P31994 43-217).
T4 construct: also called hCD32b
T4 sequence (looked up): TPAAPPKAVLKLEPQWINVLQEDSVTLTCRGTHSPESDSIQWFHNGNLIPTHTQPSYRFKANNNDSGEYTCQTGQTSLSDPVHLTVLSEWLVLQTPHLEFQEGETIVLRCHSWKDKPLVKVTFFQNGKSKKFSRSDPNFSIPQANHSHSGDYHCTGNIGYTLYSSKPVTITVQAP
The experiment in a line: Octet (printed: Octet surface plasmon resonance).

The next assay deals with T5, human CD16a V158 (human, UniProt P08637 17-208).
T5 construct: Allelic variant named only as V158; also called hCD16a V158
T5 sequence (P08637 17-208 F176V limits assumed): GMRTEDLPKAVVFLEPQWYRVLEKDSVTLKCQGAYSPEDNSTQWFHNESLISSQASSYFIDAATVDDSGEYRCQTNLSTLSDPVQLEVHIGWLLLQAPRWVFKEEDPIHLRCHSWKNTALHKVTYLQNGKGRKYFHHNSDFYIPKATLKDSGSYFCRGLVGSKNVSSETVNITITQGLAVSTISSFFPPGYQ
Description: Octet (printed: Octet surface plasmon resonance).

A further assay has as its target T6, human CD16a F158 (human, UniProt P08637 17-208).
T6 construct: Allelic variant named only as F158; also called hCD16a F158
Description: Octet (printed: Octet surface plasmon resonance).

The next assay concerns the target T7, human CD16b NA2 (human, UniProt O75015 17-200, limits assumed).
T7 construct: also called hCD16b NA2
Description: Octet (printed: Octet surface plasmon resonance).

For a further assay, the target named is T8, cynomolgus CD16 (cynomolgus, UniProt Q8SPW2 17-208).
T8 construct: also called cyCD16
T8 sequence (Q8SPW2 17-208 limits assumed): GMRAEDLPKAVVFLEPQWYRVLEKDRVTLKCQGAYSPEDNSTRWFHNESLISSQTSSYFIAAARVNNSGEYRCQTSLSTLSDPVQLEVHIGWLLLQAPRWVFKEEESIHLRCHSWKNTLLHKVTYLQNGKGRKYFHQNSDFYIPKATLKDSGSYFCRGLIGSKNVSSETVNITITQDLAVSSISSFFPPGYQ
The experiment in a line: Octet (printed: Octet surface plasmon resonance).

The target in another assay is T9, mouse CD64 (mouse, UniProt P26151 25-297).
T9 construct: also called mCD64
T9 sequence (looked up): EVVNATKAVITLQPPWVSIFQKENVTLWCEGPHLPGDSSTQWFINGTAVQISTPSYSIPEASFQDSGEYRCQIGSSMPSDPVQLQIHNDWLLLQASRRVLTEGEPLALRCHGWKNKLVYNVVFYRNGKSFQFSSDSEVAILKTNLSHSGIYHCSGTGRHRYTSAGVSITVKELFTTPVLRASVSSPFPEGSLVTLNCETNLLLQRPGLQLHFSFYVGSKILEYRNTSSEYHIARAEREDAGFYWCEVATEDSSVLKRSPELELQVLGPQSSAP
Description: Octet (printed: Octet surface plasmon resonance).

The target of the next assay is T10, mouse CD32b (mouse, UniProt P08101 30-207).
T10 construct: also called mCD32b
T10 sequence (looked up): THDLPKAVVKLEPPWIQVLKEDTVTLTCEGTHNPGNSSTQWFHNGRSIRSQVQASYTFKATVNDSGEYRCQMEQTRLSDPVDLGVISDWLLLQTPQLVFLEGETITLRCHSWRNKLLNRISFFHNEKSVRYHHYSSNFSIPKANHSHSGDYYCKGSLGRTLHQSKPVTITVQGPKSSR
The experiment in a line: Octet (printed: Octet surface plasmon resonance).

A further assay concerns the target T11, mouse CD16 (mouse, UniProt P08508 31-215).
T11 construct: also called mCD16
T11 sequence (looked up): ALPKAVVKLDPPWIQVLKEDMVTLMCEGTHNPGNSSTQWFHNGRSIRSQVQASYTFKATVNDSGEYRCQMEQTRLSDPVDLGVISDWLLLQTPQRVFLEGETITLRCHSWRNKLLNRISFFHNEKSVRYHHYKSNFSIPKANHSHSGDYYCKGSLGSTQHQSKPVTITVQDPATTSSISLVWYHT
The experiment in a line: Octet (printed: Octet surface plasmon resonance).

In another assay the target is T12, human CD28 (human, UniProt P10747 19-152).
T12 construct: Recombinant form not described; also called CD28 (Human)
The experiment in a line: Octet (printed: Octet surface plasmon resonance), n = 2.

Another assay has as its target T13, mouse CD28 (mouse, UniProt P31041 20-149, limits assumed).
T13 construct: Recombinant form not described; also called CD28 (Mouse)
The description is as above.

A further assay deals with T14, human PD-L1 (human, UniProt Q9NZQ7 19-238).
T14 construct: Recombinant form not described; also called PD-L1 (Human); B7-H1
T14 sequence (Q9NZQ7 19-238 limits assumed): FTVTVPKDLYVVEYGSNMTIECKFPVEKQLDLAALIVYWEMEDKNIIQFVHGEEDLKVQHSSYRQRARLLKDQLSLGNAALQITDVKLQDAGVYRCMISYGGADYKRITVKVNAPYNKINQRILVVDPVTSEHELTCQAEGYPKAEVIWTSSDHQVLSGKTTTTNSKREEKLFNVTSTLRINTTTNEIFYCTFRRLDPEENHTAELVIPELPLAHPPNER
The description is as above.

The next assay addresses T15, cynomolgus PD-L1 (cynomolgus, UniProt G7PSE7 19-238).
T15 construct: Recombinant form not described; also called PD-L1 (Cynomolgus)
Described as above.

A further assay addresses T16, mouse PD-L1 (mouse, UniProt Q9EP73 19-238, limits assumed).
T16 construct: Recombinant form not described; also called PD-L1 (Mouse)
The description is as above.

Assay [1] has as its target T17, mouse neonatal Fc Receptor (FcRn) (mouse, UniProt Q61559 22-297; P01887 21-119).
T17 construct: also called FcRn (Mouse)
T17 sequence (looked up) 1: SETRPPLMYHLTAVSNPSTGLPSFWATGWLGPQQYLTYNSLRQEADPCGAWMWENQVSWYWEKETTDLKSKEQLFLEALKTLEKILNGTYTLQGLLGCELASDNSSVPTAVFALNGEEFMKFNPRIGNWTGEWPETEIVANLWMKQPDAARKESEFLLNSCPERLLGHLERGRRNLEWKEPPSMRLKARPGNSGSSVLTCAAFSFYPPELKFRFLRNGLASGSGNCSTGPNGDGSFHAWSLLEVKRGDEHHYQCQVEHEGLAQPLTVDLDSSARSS
T17 sequence (looked up) 2: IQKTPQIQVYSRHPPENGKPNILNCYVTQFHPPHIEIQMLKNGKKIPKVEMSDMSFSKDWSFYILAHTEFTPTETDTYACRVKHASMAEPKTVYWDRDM
The assay is described as above.

Assay [2] addresses T18, human neonatal Fc Receptor (FcRn) (human, UniProt P55899 24-297; P61769 21-119).
T18 construct: also called FcRn (Human)
Described as above.

Assay [3] deals with T19, cynomolgus neonatal Fc Receptor (FcRn) (cynomolgus, UniProt Q8SPV9 24-297; Q8SPW0 21-119).
T19 construct: also called FcRn (Cynomolgus)
The assay is described as above.

The target in the next assay is T20, human CD64 (human, UniProt P12314 16-288).
T20 construct: also called hCD64
T20 sequence (P12314 16-288 limits assumed): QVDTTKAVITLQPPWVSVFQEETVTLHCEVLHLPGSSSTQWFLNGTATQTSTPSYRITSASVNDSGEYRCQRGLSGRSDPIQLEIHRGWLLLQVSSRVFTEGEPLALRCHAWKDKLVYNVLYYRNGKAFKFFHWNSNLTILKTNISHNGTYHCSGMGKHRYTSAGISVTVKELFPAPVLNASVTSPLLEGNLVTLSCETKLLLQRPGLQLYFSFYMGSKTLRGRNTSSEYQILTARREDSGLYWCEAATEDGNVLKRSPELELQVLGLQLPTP
The experiment in a line: Octet (printed: Octet surface plasmon resonance), n = 1.

In assay [4] the target is T21, PD-L1 on HPAC cells (pre-activated with IFNγ) (human, UniProt Q9NZQ7 19-290).
T21 construct: whole, on cells; also called PD-L1 expressing HPAC cells
T21 sequence (Q9NZQ7 19-290): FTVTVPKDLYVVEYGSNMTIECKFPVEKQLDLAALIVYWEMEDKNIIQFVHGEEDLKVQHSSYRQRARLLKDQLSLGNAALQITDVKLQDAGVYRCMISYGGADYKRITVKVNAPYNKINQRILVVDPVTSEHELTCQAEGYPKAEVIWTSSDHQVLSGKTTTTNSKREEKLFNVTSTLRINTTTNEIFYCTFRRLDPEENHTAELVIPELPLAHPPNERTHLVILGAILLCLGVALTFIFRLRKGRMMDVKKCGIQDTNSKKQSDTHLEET
The experiment in a line: flow cytometry on IFNγ-activated HPAC cells (PD-L1+), anti-human IgG secondary antibody, geometric mean. As to the method:
Cells were harvested, checked for viability and counted. 200′000 cells were incubated for 15 minutes at 4° C. with increasing concentrations of the antibodies diluted in FACS buffer (PBS 2% BSA, 0.1% NaN3). Cells were washed twice with cold FACS buffer and re-incubated for further 15 minutes at 4′C with a suitable anti-human IgG secondary antibody. Cells were washed twice with cold FACS buffer and resuspended in 150 μl FACS buffer with a compatible viability marker. Binding of antibodies to living cells was measured by flow cytometry using a Cytoflex Platform (Beckman Coulter). Data was analyzed with FlowJo™ v10 software (BD Life Sciences) and dose-response binding curves were drawn using GiraphPad Prism 9 software.
A general note: A flow cytometer gives signals particle by particle.

Assay [5] addresses PD-L1 on engineered CHO-K1 artificial Antigen Presenting Cells (aAPC) (Homo sapiens (Human), UniProt Q9NZQ7 19-290). Description: cell-based or functional assay.

PD-L1 on engineered CHO-K1 artificial Antigen Presenting Cells (aAPC), sequence (Q9NZQ7 19-290 limits assumed, change not shown): as the sequence (Q9NZQ7 19-290) above
T16 sequence (Q9EP73 19-238 limits assumed): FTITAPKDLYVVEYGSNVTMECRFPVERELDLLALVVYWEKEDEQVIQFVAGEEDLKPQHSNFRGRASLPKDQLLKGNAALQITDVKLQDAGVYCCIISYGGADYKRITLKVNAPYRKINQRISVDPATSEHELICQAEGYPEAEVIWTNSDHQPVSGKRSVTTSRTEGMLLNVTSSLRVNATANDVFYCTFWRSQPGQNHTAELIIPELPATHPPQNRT
T18 sequence (P55899 24-297 limits assumed, chain 1 of 2): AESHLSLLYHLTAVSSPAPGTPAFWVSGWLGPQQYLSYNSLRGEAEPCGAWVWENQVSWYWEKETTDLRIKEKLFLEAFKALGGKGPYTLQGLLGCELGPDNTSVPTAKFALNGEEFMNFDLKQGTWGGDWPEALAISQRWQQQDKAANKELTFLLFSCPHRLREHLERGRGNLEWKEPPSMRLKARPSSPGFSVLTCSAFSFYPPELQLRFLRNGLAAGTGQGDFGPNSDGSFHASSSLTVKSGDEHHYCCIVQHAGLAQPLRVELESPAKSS
T18 sequence (P61769 21-119 limits assumed, chain 2 of 2): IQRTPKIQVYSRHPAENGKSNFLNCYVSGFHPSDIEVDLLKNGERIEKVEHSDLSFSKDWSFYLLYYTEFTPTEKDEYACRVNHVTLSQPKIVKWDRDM
T13 sequence (P31041 20-149 limits assumed): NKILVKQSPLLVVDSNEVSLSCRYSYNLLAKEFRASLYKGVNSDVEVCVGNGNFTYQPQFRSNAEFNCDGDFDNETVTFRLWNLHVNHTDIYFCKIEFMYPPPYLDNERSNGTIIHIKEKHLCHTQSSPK
T6 sequence (P08637 17-208 limits assumed): as the sequence (P08637 17-208 F176V limits assumed) above, with V160F counted along it
T7 sequence (O75015 17-200 N65S limits assumed): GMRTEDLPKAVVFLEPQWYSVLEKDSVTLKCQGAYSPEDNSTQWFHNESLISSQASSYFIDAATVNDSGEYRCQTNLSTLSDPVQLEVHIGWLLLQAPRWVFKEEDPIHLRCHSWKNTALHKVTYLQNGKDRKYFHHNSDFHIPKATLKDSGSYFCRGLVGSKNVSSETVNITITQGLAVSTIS
T15 sequence (G7PSE7 entry or part of it): as the sequence (Q9NZQ7 19-238 limits assumed) above, with A33T, A34S, S62N, R68Q, Q82R, F173L, T185A, T192I, H215L counted along it

B1: AI3S79/N (bispecific antibody, human IgG1, kappa, lambda, L234A L235A)
heavy: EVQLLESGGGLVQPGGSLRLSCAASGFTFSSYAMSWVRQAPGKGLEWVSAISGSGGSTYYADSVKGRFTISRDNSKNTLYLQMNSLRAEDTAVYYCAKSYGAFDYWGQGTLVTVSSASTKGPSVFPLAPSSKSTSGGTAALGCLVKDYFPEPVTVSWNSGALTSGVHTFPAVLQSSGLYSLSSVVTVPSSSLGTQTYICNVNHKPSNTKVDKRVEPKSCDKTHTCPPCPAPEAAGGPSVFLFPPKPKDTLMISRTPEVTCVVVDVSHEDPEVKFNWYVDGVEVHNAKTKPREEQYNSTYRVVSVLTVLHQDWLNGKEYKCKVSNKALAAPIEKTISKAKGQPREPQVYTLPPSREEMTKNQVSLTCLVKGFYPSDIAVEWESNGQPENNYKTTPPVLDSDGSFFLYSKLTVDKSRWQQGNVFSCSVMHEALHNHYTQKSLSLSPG
light 1: not shown
light 2: QSALTQPASVSGSPGQSITISCTGTSSDVFRPPLVSWYQQHPGKAPKLMIYFASLRPSGVSNRFSGSKSGNTASLTISGLQAEDEADYYCSSWDHTGDGHVFGGGTKLTVLGQPKAAPSVTLFPPSSEELQANKATLVCLISDFYPGAVTVAWKADSSPVKAGVETTTPSKQSNNKYAASSYLSLTPEQWKSHRSYSCQVTHEGSTVEKTVAPTECS
notes: also called PD-L1xCD28 bsAb; PD-L1xCD28 κλ body
Turning to B1, the Kd with cynomolgus CD28 is about 54 nM; with human CD28, 54 nM; with mouse CD28 it was 11100 nM; with human PD-L1, 0.3 nM; with cynomolgus PD-L1 it was 1.8 nM; with mouse PD-L1, 0.79 nM. Further, the Kd is 0.06 nM in [1], 7.1 nM in [2], 8.6 nM in assay [3] and 804 nM in the assay with human CD64. Moreover, the binding result with human CD32a R167, with human CD32a H167, in the assay with human CD32b, in the assay with human CD16a V158, in the assay with human CD16a F158 and with human CD16b NA2 was “no binding (tested: highest tested concentration: 2000 nM)” each time. The binding result with cynomolgus CD16, in the assay with mouse CD64, in the assay with mouse CD32b and with mouse CD16 was “no binding (tested: highest tested concentration: 2000 nM)” each time. In addition, the “EC50 (read off the curve)” value in [4] is about 0.9 µg/mL.

B2: S79 mAb (antibody, V domains shown)
VH: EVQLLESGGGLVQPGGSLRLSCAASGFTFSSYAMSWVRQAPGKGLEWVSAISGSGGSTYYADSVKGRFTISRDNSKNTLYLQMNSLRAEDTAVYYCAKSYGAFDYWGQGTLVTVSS
VL: QSALTQPASVSGSPGQSITISCTGTSSDVFRPPLVSWYQQHPGKAPKLMIYFASLRPSGVSNRFSGSKSGNTASLTISGLQAEDEADYYCSSWDHTGDGHVFGGGTKLTVL
notes: also called bivalent PD-L1 mAb based on the anti-PD-L1 arm S79
For B2, the “EC50 (read off the curve): RLU in the PD-1/PD-L1 blockade bioassay (blocked partner m28)” value in assay [5] was about 0.02 µg/mL. Moreover, the “EC50 (read off the curve)” value in assay [4] is about 0.6 µg/mL.
